Measured values taken from article PMC10138814.

Key:
[1] = biological target: His6-SUMO-LaM1-LaM8 (llama); assay: BLI; His-SUMO-tandem nanobody loaded on Ni-NTA biosensors; mCherry or DsRed in solution; 20 mM HEPES pH 7.4, 150 mM NaCl, 0.005% Tween-20; association 600 s, dissociation 600 s; 2:1 heterogeneous ligand fit; DsRed concentration calculated as a monomer
[2] = biological target: His6-SUMO-LaM8-LaM4 (llama); assay: as above

DsRed, sequence (Q9U6Y8 whole entry): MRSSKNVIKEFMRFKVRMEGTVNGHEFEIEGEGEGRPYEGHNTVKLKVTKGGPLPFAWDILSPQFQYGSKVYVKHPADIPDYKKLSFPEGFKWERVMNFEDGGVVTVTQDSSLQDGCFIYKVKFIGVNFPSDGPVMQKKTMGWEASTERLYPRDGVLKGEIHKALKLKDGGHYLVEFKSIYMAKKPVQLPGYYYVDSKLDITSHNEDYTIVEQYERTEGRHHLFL

Row | Substance | KD2 [1] [pM] | KD (site 1 of the 2:1 heterogeneous ligand fit) [1] [nM] | kdis1 [1] [s⁻¹] | kdis2 [1] [s⁻¹] | kon2 [1] [M⁻¹ s⁻¹] | kon (site 1 of the 2:1 heterogeneous ligand fit) [1] [M⁻¹ s⁻¹] | KD2 [2] [nM] | KD (site 1 of the 2:1 heterogeneous ligand fit) [2] [nM] | kdis1 [2] [s⁻¹] | kdis2 [2] [s⁻¹] | kon2 [2] [M⁻¹ s⁻¹] | kon (site 1 of the 2:1 heterogeneous ligand fit) [2] [M⁻¹ s⁻¹]
1 | mCherry | < 1 | 1.87 | 0.000552 | < 1e-07 | 46700 | 296000 | 1.29 | 1.38 | 0.000239 | 6.51e-05 | 50600 | 173000
2 | DsRed (from UniProt Q9U6Y8 1-225) (natural protein) | – | – | – | – | – | – | 4.12 | 2.64 | 0.000232 | 8.2e-05 | 19900 | 88100
